The source of these data is patent US20230365662A1.

The chains are these.
B1: KB001 mouse Fab FASEBA VH S30E (Fab, V domains shown)
VH: EVQLKQSGPGLVAPSQSLSITCTVSGFSLEIYSVHWVRQPPGKGLEWLGMIWGGGSSDYNSALKSRLSISKDNSKSQVFLKMNSLQTDDTAMYYCARNGNFYAMDYWGQGTSVTVSS
VL: QIVLTQSPAIMSASLGERVTMTCTASSSVSSSFLHWYQQKPGSSPQLWIYSTSNLASGVPARFSGSGSGTSYSLTISSMEAEDAATYYCHQYHHSPYIYTFGGGTKLEIK
B2: KB001 mouse Fab FASEBA VH S61Q (Fab, V domains shown)
VH: EVQLKQSGPGLVAPSQSLSITCTVSGFSLSIYSVHWVRQPPGKGLEWLGMIWGGGSSDYNQALKSRLSISKDNSKSQVFLKMNSLQTDDTAMYYCARNGNFYAMDYWGQGTSVTVSS
VL: QIVLTQSPAIMSASLGERVTMTCTASSSVSSSFLHWYQQKPGSSPQLWIYSTSNLASGVPARFSGSGSGTSYSLTISSMEAEDAATYYCHQYHHSPYIYTFGGGTKLEIK
B3: KB001 mouse Fab FASEBA VH S56A (Fab, V domains shown)
VH: EVQLKQSGPGLVAPSQSLSITCTVSGFSLSIYSVHWVRQPPGKGLEWLGMIWGGGASDYNSALKSRLSISKDNSKSQVFLKMNSLQTDDTAMYYCARNGNFYAMDYWGQGTSVTVSS
VL: QIVLTQSPAIMSASLGERVTMTCTASSSVSSSFLHWYQQKPGSSPQLWIYSTSNLASGVPARFSGSGSGTSYSLTISSMEAEDAATYYCHQYHHSPYIYTFGGGTKLEIK
B4: KB001 mouse Fab FASEBA VH S57A (Fab, V domains shown)
VH: EVQLKQSGPGLVAPSQSLSITCTVSGFSLSIYSVHWVRQPPGKGLEWLGMIWGGGSADYNSALKSRLSISKDNSKSQVFLKMNSLQTDDTAMYYCARNGNFYAMDYWGQGTSVTVSS
VL: QIVLTQSPAIMSASLGERVTMTCTASSSVSSSFLHWYQQKPGSSPQLWIYSTSNLASGVPARFSGSGSGTSYSLTISSMEAEDAATYYCHQYHHSPYIYTFGGGTKLEIK
B5: KB001 mouse Fab FASEBA VH Y59V (Fab, V domains shown)
VH: EVQLKQSGPGLVAPSQSLSITCTVSGFSLSIYSVHWVRQPPGKGLEWLGMIWGGGSSDVNSALKSRLSISKDNSKSQVFLKMNSLQTDDTAMYYCARNGNFYAMDYWGQGTSVTVSS
VL: QIVLTQSPAIMSASLGERVTMTCTASSSVSSSFLHWYQQKPGSSPQLWIYSTSNLASGVPARFSGSGSGTSYSLTISSMEAEDAATYYCHQYHHSPYIYTFGGGTKLEIK
B6: KB001 mouse Fab FASEBA VH S30Y (Fab, V domains shown)
VH: EVQLKQSGPGLVAPSQSLSITCTVSGFSLYIYSVHWVRQPPGKGLEWLGMIWGGGSSDYNSALKSRLSISKDNSKSQVFLKMNSLQTDDTAMYYCARNGNFYAMDYWGQGTSVTVSS
VL: QIVLTQSPAIMSASLGERVTMTCTASSSVSSSFLHWYQQKPGSSPQLWIYSTSNLASGVPARFSGSGSGTSYSLTISSMEAEDAATYYCHQYHHSPYIYTFGGGTKLEIK
B7: KB001 mouse Fab FASEBA VH S30A (Fab, V domains shown)
VH: EVQLKQSGPGLVAPSQSLSITCTVSGFSLAIYSVHWVRQPPGKGLEWLGMIWGGGSSDYNSALKSRLSISKDNSKSQVFLKMNSLQTDDTAMYYCARNGNFYAMDYWGQGTSVTVSS
VL: QIVLTQSPAIMSASLGERVTMTCTASSSVSSSFLHWYQQKPGSSPQLWIYSTSNLASGVPARFSGSGSGTSYSLTISSMEAEDAATYYCHQYHHSPYIYTFGGGTKLEIK
B8: KB001 mouse Fab FASEBA VH S57V (Fab, V domains shown)
VH: EVQLKQSGPGLVAPSQSLSITCTVSGFSLSIYSVHWVRQPPGKGLEWLGMIWGGGSVDYNSALKSRLSISKDNSKSQVFLKMNSLQTDDTAMYYCARNGNFYAMDYWGQGTSVTVSS
VL: QIVLTQSPAIMSASLGERVTMTCTASSSVSSSFLHWYQQKPGSSPQLWIYSTSNLASGVPARFSGSGSGTSYSLTISSMEAEDAATYYCHQYHHSPYIYTFGGGTKLEIK
B9: KB001 mouse Fab FASEBA VH S28E (Fab, V domains shown)
VH: EVQLKQSGPGLVAPSQSLSITCTVSGFELSIYSVHWVRQPPGKGLEWLGMIWGGGSSDYNSALKSRLSISKDNSKSQVFLKMNSLQTDDTAMYYCARNGNFYAMDYWGQGTSVTVSS
VL: QIVLTQSPAIMSASLGERVTMTCTASSSVSSSFLHWYQQKPGSSPQLWIYSTSNLASGVPARFSGSGSGTSYSLTISSMEAEDAATYYCHQYHHSPYIYTFGGGTKLEIK
B10: KB001 mouse Fab FASEBA VH S61D (Fab, V domains shown)
VH: EVQLKQSGPGLVAPSQSLSITCTVSGFSLSIYSVHWVRQPPGKGLEWLGMIWGGGSSDYNDALKSRLSISKDNSKSQVFLKMNSLQTDDTAMYYCARNGNFYAMDYWGQGTSVTVSS
VL: QIVLTQSPAIMSASLGERVTMTCTASSSVSSSFLHWYQQKPGSSPQLWIYSTSNLASGVPARFSGSGSGTSYSLTISSMEAEDAATYYCHQYHHSPYIYTFGGGTKLEIK
B11: KB001 mouse Fab FASEBA VH I31M (Fab, V domains shown)
VH: EVQLKQSGPGLVAPSQSLSITCTVSGFSLSMYSVHWVRQPPGKGLEWLGMIWGGGSSDYNSALKSRLSISKDNSKSQVFLKMNSLQTDDTAMYYCARNGNFYAMDYWGQGTSVTVSS
VL: QIVLTQSPAIMSASLGERVTMTCTASSSVSSSFLHWYQQKPGSSPQLWIYSTSNLASGVPARFSGSGSGTSYSLTISSMEAEDAATYYCHQYHHSPYIYTFGGGTKLEIK
B12: KB001 mouse Fab FASEBA VH V34I (Fab, V domains shown)
VH: EVQLKQSGPGLVAPSQSLSITCTVSGFSLSIYSIHWVRQPPGKGLEWLGMIWGGGSSDYNSALKSRLSISKDNSKSQVFLKMNSLQTDDTAMYYCARNGNFYAMDYWGQGTSVTVSS
VL: QIVLTQSPAIMSASLGERVTMTCTASSSVSSSFLHWYQQKPGSSPQLWIYSTSNLASGVPARFSGSGSGTSYSLTISSMEAEDAATYYCHQYHHSPYIYTFGGGTKLEIK
B13: KB001 mouse Fab FASEBA VH I31V (Fab, V domains shown)
VH: EVQLKQSGPGLVAPSQSLSITCTVSGFSLSVYSVHWVRQPPGKGLEWLGMIWGGGSSDYNSALKSRLSISKDNSKSQVFLKMNSLQTDDTAMYYCARNGNFYAMDYWGQGTSVTVSS
VL: QIVLTQSPAIMSASLGERVTMTCTASSSVSSSFLHWYQQKPGSSPQLWIYSTSNLASGVPARFSGSGSGTSYSLTISSMEAEDAATYYCHQYHHSPYIYTFGGGTKLEIK
B14: KB001 mouse Fab FASEBA VH S30N (Fab, V domains shown)
VH: EVQLKQSGPGLVAPSQSLSITCTVSGFSLNIYSVHWVRQPPGKGLEWLGMIWGGGSSDYNSALKSRLSISKDNSKSQVFLKMNSLQTDDTAMYYCARNGNFYAMDYWGQGTSVTVSS
VL: QIVLTQSPAIMSASLGERVTMTCTASSSVSSSFLHWYQQKPGSSPQLWIYSTSNLASGVPARFSGSGSGTSYSLTISSMEAEDAATYYCHQYHHSPYIYTFGGGTKLEIK
B15: KB001 mouse Fab FASEBA VH S28P (Fab, V domains shown)
VH: EVQLKQSGPGLVAPSQSLSITCTVSGFPLSIYSVHWVRQPPGKGLEWLGMIWGGGSSDYNSALKSRLSISKDNSKSQVFLKMNSLQTDDTAMYYCARNGNFYAMDYWGQGTSVTVSS
VL: QIVLTQSPAIMSASLGERVTMTCTASSSVSSSFLHWYQQKPGSSPQLWIYSTSNLASGVPARFSGSGSGTSYSLTISSMEAEDAATYYCHQYHHSPYIYTFGGGTKLEIK
B16: KB001 mouse Fab FASEBA VH S57Q (Fab, V domains shown)
VH: EVQLKQSGPGLVAPSQSLSITCTVSGFSLSIYSVHWVRQPPGKGLEWLGMIWGGGSQDYNSALKSRLSISKDNSKSQVFLKMNSLQTDDTAMYYCARNGNFYAMDYWGQGTSVTVSS
VL: QIVLTQSPAIMSASLGERVTMTCTASSSVSSSFLHWYQQKPGSSPQLWIYSTSNLASGVPARFSGSGSGTSYSLTISSMEAEDAATYYCHQYHHSPYIYTFGGGTKLEIK
B17: KB001 mouse Fab FASEBA VH I31T (Fab, V domains shown)
VH: EVQLKQSGPGLVAPSQSLSITCTVSGFSLSTYSVHWVRQPPGKGLEWLGMIWGGGSSDYNSALKSRLSISKDNSKSQVFLKMNSLQTDDTAMYYCARNGNFYAMDYWGQGTSVTVSS
VL: QIVLTQSPAIMSASLGERVTMTCTASSSVSSSFLHWYQQKPGSSPQLWIYSTSNLASGVPARFSGSGSGTSYSLTISSMEAEDAATYYCHQYHHSPYIYTFGGGTKLEIK
B18: KB001 mouse Fab FASEBA VH S30G (Fab, V domains shown)
VH: EVQLKQSGPGLVAPSQSLSITCTVSGFSLGIYSVHWVRQPPGKGLEWLGMIWGGGSSDYNSALKSRLSISKDNSKSQVFLKMNSLQTDDTAMYYCARNGNFYAMDYWGQGTSVTVSS
VL: QIVLTQSPAIMSASLGERVTMTCTASSSVSSSFLHWYQQKPGSSPQLWIYSTSNLASGVPARFSGSGSGTSYSLTISSMEAEDAATYYCHQYHHSPYIYTFGGGTKLEIK
B19: KB001 mouse Fab VL T100D (Fab, V domains shown)
VH: EVQLKQSGPGLVAPSQSLSITCTVSGFSLSIYSVHWVRQPPGKGLEWLGMIWGGGSSDYNSALKSRLSISKDNSKSQVFLKMNSLQTDDTAMYYCARNGNFYAMDYWGQGTSVTVSS
VL: QIVLTQSPAIMSASLGERVTMTCTASSSVSSSFLHWYQQKPGSSPQLWIYSTSNLASGVPARFSGSGSGTSYSLTISSMEAEDAATYYCHQYHHSPYIYDFGGGTKLEIK

Values joined by “and” are separate entries in the source; they are usually repeats but may differ in a detail not shown here. Identical values can stand only once.

The target in the first test is HRgpA-6H (Porphyromonas gingivalis) (UniProt P28784). In words: ELISA on coated HRgpA-6H. (An ELISA detects its analyte on a solid surface through an enzyme-linked reagent.)
As for B1, the OD450nm was found to be 0.567 and the Ratio OD(Variant)/OD(WT) amounted to 1.12.

As to B2, the OD450nm is 0.634 and the Ratio OD(Variant)/OD(WT) was determined as 1.28.

As for B3, the OD450nm is 0.891 and 0.86 and 0.82; the Ratio OD(Variant)/OD(WT) was 1.01 and 0.978 and 0.932.

For B4, the OD450nm is 0.922 and the Ratio OD(Variant)/OD(WT) turned out to be 1.05.

As for B5, the OD450nm is 0.83 and 0.79; the Ratio OD(Variant)/OD(WT) is 1.05 and 0.999.

Take B6: the OD450nm is 0.53 and 0.488; the Ratio OD(Variant)/OD(WT) is 1.05 and 0.967.

As to B7, the OD450nm is 0.534 and 0.499 and 0.494; the Ratio OD(Variant)/OD(WT) was 1.06 and 0.989 and 0.979.

In the case of B8, the OD450nm is 0.911 and 0.869; the Ratio OD(Variant)/OD(WT) was 1.04 and 0.988.

As to B9, the OD450nm is 0.561 and 0.551 and 0.494; the Ratio OD(Variant)/OD(WT) was 1.04 and 1.02 and 0.915.

Turning to B10, the Ratio OD(Variant)/OD(WT) is 1.14 and 1.11 (2×) and 0.956.

B11: the OD450nm is 0.522 and the Ratio OD(Variant)/OD(WT) was 1.03.

Consider B12, for which the OD450nm was 0.891 and 0.868 and 0.866; the Ratio OD(Variant)/OD(WT) is 1.08 and 1.05 (2×).

Take B13: the OD450nm was 0.537 and 0.521; the Ratio OD(Variant)/OD(WT) is 1.06 and 1.03.

As to B14, the OD450nm is 0.565 and 0.56; the Ratio OD(Variant)/OD(WT) is 1.12 and 1.11.

Regarding B15, the OD450nm is 0.545 and 0.452 and 0.514; the Ratio OD(Variant)/OD(WT) is 1.01 and 0.837 and 0.952.

In the case of B16, the OD450nm was 0.915 and 0.863 and 0.836; the Ratio OD(Variant)/OD(WT) is 1.04 and 0.981 and 0.951.

For the molecule B17, the OD450nm was 0.56 and 0.534; the Ratio OD(Variant)/OD(WT) is 1.11 and 1.06.

Regarding B18, the OD450nm was 0.533 and 0.515; the Ratio OD(Variant)/OD(WT) is 1.06 and 1.02.

For another test the target is unchanged. In words: ELISA, FASEBA Fab on coated HRgpA-6H.
For B19, the OD450nm is 0.645 and the Ratio OD(Variant)/OD(WT) was 1.23.
